According to PMC3714855:
Where “and” joins values, the source holds several entries; their conditions need not be identical. Equal values may be shown once.

How the values were obtained:
[1] = biological target: GluA1(E809W) with a C-terminal GFP tag (rat); experiment: SEC
[2] = biological target: GluA1(L795W) with a C-terminal GFP tag (rat); experiment: SEC
[3] = biological target: GluA2(Q)(A806W) with a C-terminal GFP tag (rat); experiment: SEC
[4] = biological target: GluA2(Q)(E813W) with a C-terminal GFP tag (rat); experiment: SEC
[5] = biological target: GluA2(Q)(G802W) with a C-terminal GFP tag (rat); experiment: SEC
[6] = biological target: GluA2(Q)(L811W) with a C-terminal GFP tag (rat); experiment: SEC
[7] = biological target: GluA2(Q)(V795W) with a C-terminal GFP tag (rat); experiment: SEC
GluA2(R)(E813W) (rat) = experiment: native gel or EMSA
GluA2(R)(G802W) (rat) = experiment: native gel or EMSA
GluA2(R)(L811W) (rat) = experiment: native gel or EMSA
GluA2(R)(V795W) (rat) = experiment: native gel or EMSA
[8] = biological target: GluA2(R)-ΔM4, untagged (rat); experiment: native gel or EMSA
HA-GluA2(R)-ΔM4 (rat) = experiment: native gel or EMSA
[9] = biological target: HA-tagged wild-type GluA2(R) (rat); experiment: native gel or EMSA
[10] = biological target: wild-type GluA1 with a C-terminal GFP tag (rat); experiment: SEC
[11] = biological target: wild-type GluA2(Q) with a C-terminal GFP tag (rat); experiment: SEC
[12] = biological target: wild-type GluA2(R), untagged (rat); experiment: native gel or EMSA

Substance: GluA1(E809W) with a C-terminal GFP tag (receptor)
- stoichiometry N [1]: 2

Substance: GluA1(L795W) with a C-terminal GFP tag (receptor)
- stoichiometry N [2]: 2

Substance: GluA2(Q)(A806W) with a C-terminal GFP tag (receptor)
- stoichiometry N [3]: 2

Substance: GluA2(Q)(E813W) with a C-terminal GFP tag (receptor)
- stoichiometry N [4]: 2

Substance: GluA2(Q)(G802W) with a C-terminal GFP tag (receptor)
- stoichiometry N [5]: 2

Substance: GluA2(Q)(L811W) with a C-terminal GFP tag (receptor)
- stoichiometry N [6]: 4

Substance: GluA2(Q)(V795W) with a C-terminal GFP tag (receptor)
- stoichiometry N [7]: 2

Substance: GluA2(R)(E813W) (receptor)
- stoichiometry N (GluA2(R)(E813W) (rat)): 2

Substance: GluA2(R)(G802W) (receptor)
- stoichiometry N (GluA2(R)(G802W) (rat)): 2

Substance: GluA2(R)(L811W) (receptor)
- stoichiometry N (GluA2(R)(L811W) (rat)): 4 and 2

Substance: GluA2(R)(V795W) (receptor)
- stoichiometry N (GluA2(R)(V795W) (rat)): 2

Substance: GluA2(R)-ΔM4, untagged (domain or fragment)
- stoichiometry N [8]: 2

Substance: HA-GluA2(R)-ΔM4 (domain or fragment)
- stoichiometry N (HA-GluA2(R)-ΔM4 (rat)): 2

Substance: HA-tagged wild-type GluA2(R) (receptor)
- stoichiometry N [9]: 4 and 2

Substance: wild-type GluA1 with a C-terminal GFP tag (receptor)
- stoichiometry N [10]: 4

Substance: wild-type GluA2(Q) with a C-terminal GFP tag (receptor)
- stoichiometry N [11]: 4

Substance: wild-type GluA2(R), untagged (receptor)
- stoichiometry N [12]: 4 and 2
